Test results: article doi:10.1101/2023.11.19.566349
Changes are numbered by the printed parent chain.

Experiments:
Test in all cases: EMSA
Tric1 SAM Asp235Ala = biological target: T1, Tric1 SAM Asp235Ala (Arabidopsis thaliana, UniProt Q9SCK3 191-261, D235A)
T1 sequence: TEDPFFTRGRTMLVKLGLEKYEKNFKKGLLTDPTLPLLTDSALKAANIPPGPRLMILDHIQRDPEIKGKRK

[1] = biological target: T2, Tric1 SAM Asp235Ala:Gly241Glu (Arabidopsis thaliana, UniProt Q9SCK3 191-261, D235A;G241E)
T2 sequence: T1 sequence with G51E

Tric1 SAM Gly241Glu = biological target: T3, Tric1 SAM Gly241Glu (Arabidopsis thaliana, UniProt Q9SCK3 191-261, G241E)
T3 sequence: T1 sequence with A45D, G51E

Tric1 SAM domain WT = biological target: T4, Tric1 SAM domain WT (Arabidopsis thaliana, UniProt Q9SCK3 191-261)
T4 sequence: T1 sequence with A45D

Binder: UCGCUUUGCAUGCGA (structured_RNA) [tRNAala T-arm]
- binding result (Tric1 SAM Asp235Ala): no binding
- binding result [1]: no binding
- binding result (Tric1 SAM Gly241Glu): no binding
- binding result (Tric1 SAM domain WT): binds
